Measurements published in paper PMC4067515.

Target: recombinant Bet v 1 trimer (birch)
Assay: SEC

For recombinant Bet v 1 trimer, which stoichiometry N is on record?
The stoichiometry N was 2.
